The results in this text go back to patent publication US20100272723A1 (Xencor, published 2010).

B1: H1 / L1.3 (antibody, V domains shown)
VH: EVQLVESGGGLVKPGGSLKLSCAASGYTFTSYVMHWVRQAPGKGLEWIGYINPYNDGTKYNEKFQGRVTISSDKSISTAYMELSSLRSEDTAMYYCARGTYYYGSRVFDYWGQGTLVTVSS
VL: DIVMTQSPATLSLSPGERATLSCRSSKSLLNSNGNTYLYWFQQKPGQSPQLLIYRMQNLASGVPDRFSGSGSGTEFTLTISSLEPEDFAVYYCMQHLEYPFTFGAGTKLEIK
notes: vs H1L1 (Kabat): VL S52Q; also called 4G7 H1_L1.3
B2: H1 / L1.68 (antibody, V domains shown)
VH: B1 VH
VL: B1 VL with Q57S, F101N
notes: vs H1L1 (Kabat): VL F96N; also called 4G7 H1_L1.68
B3: H1 / L1.8 (antibody, V domains shown)
VH: B1 VH
VL: B1 VL with Q57K
notes: vs H1L1 (Kabat): VL S52K; also called 4G7 H1_L1.8
B4: H1.52 / L1.162 (antibody, V domains shown)
VH: B1 VH with S105T
VL: B1 VL with L30Q, S32A, G34A, Q57S, A60N, F101I
notes: vs H1L1 (Kabat): VH S100cT; VL L27cQ/S27eA/G29A/A55N/F96I; also called 4G7 H1.52_L1.162
B5: H1.201 / L1.163 (antibody, V domains shown)
VH: B1 VH with D56S, S105T
VL: B1 VL with L30Q, S32A, G34S, Q57S, A60N, F101I
notes: vs H1L1 (Kabat): VH D55S/S100cT; VL L27cQ/S27eA/G29S/A55N/F96I; also called 4G7 H1.201_L1.163
B6: H1 / L1.55 (antibody, V domains shown)
VH: B1 VH
VL: B1 VL with Q57S, N58Y
notes: vs H1L1 (Kabat): VL N53Y; also called 4G7 H1_L1.55
B7: H1 / L1.96 (antibody, V domains shown)
VH: B1 VH
VL: B1 VL with Q57S, A60N
notes: vs H1L1 (Kabat): VL A55N; also called 4G7 H1_L1.96
B8: H1 / L1.46 (antibody, V domains shown)
VH: B1 VH
VL: B1 VL with Q57S, N58H
notes: vs H1L1 (Kabat): VL N53H; also called 4G7 H1_L1.46
B9: H1.201 / L1.162 (antibody, V domains shown)
VH: B1 VH with D56S, S105T
VL: B1 VL with L30Q, S32A, G34A, Q57S, A60N, F101I
notes: vs H1L1 (Kabat): VH D55S/S100cT; VL L27cQ/S27eA/G29A/A55N/F96I; also called 4G7 H1.201_L1.162
B10: H1 / L1.64 (antibody, V domains shown)
VH: B1 VH
VL: B1 VL with Q57S, F101I
notes: vs H1L1 (Kabat): VL F96I; also called 4G7 H1_L1.64
B11: H1.191 / L1.162 (antibody, V domains shown)
VH: B1 VH with K59E, S105T
VL: B1 VL with L30Q, S32A, G34A, Q57S, A60N, F101I
notes: vs H1L1 (Kabat): VH K58E/S100cT; VL L27cQ/S27eA/G29A/A55N/F96I; also called 4G7 H1.191_L1.162
B12: H1.52 / L1.163 (antibody, V domains shown)
VH: B1 VH with S105T
VL: B1 VL with L30Q, S32A, G34S, Q57S, A60N, F101I
notes: vs H1L1 (Kabat): VH S100cT; VL L27cQ/S27eA/G29S/A55N/F96I; also called 4G7 H1.52_L1.163
B13: H1 / L1.9 (antibody, V domains shown)
VH: B1 VH
VL: B1 VL with Q57L
notes: vs H1L1 (Kabat): VL S52L; also called 4G7 H1_L1.9
B14: H1 / L1.67 (antibody, V domains shown)
VH: B1 VH
VL: B1 VL with Q57S, F101V
notes: vs H1L1 (Kabat): VL F96V; also called 4G7 H1_L1.67
B15: H1 / L1.92 (antibody, V domains shown)
VH: B1 VH
VL: B1 VL with Q57S, A60L
notes: vs H1L1 (Kabat): VL A55L; also called 4G7 H1_L1.92
B16: H1 / L1.26 (antibody, V domains shown)
VH: B1 VH
VL: B1 VL with L30Q, Q57S
notes: vs H1L1 (Kabat): VL L27cQ; also called 4G7 H1_L1.26
B17: H1.52 / L1.161 (antibody, V domains shown)
VH: B1 VH with S105T
VL: B1 VL with L30Q, S32V, G34S, Q57S, A60N, F101I
notes: vs H1L1 (Kabat): VH S100cT; VL L27cQ/S27eV/G29S/A55N/F96I; also called 4G7 H1.52_L1.161
B18: H1.191 / L1.163 (antibody, V domains shown)
VH: B1 VH with K59E, S105T
VL: B1 VL with L30Q, S32A, G34S, Q57S, A60N, F101I
notes: vs H1L1 (Kabat): VH K58E/S100cT; VL L27cQ/S27eA/G29S/A55N/F96I; also called 4G7 H1.191_L1.163
B19: H1 / L1.54 (antibody, V domains shown)
VH: B1 VH
VL: B1 VL with Q57S, N58G
notes: vs H1L1 (Kabat): VL N53G; also called 4G7 H1_L1.54
B20: H1 / L1.32 (antibody, V domains shown)
VH: B1 VH
VL: B1 VL with S32V, Q57S
notes: vs H1L1 (Kabat): VL S27eV; also called 4G7 H1_L1.32
B21: H1.201 / L1.164 (antibody, V domains shown)
VH: B1 VH with D56S, S105T
VL: B1 VL with L30Q, S32A, Q57S, A60N, F101I
notes: vs H1L1 (Kabat): VH D55S/S100cT; VL L27cQ/S27eA/A55N/F96I; also called 4G7 H1.201_L1.164
B22: H1 / L1.17 (antibody, V domains shown)
VH: B1 VH
VL: B1 VL with Q57S, E98T
notes: vs H1L1 (Kabat): VL E93T; also called 4G7 H1_L1.17
B23: H1 / L1.80 (antibody, V domains shown)
VH: B1 VH
VL: B1 VL with Y39F, Q57S
notes: vs H1L1 (Kabat): VL Y34F; also called 4G7 H1_L1.80
B24: H1.203 / L1.155 (antibody, V domains shown)
VH: B1 VH with D56S, K59E, S105T
VL: B1 VL with L30Q, S32V, Q57S, A60N, F101I
notes: vs H1L1 (Kabat): VH D55S/K58E/S100cT; VL L27cQ/S27eV/A55N/F96I; also called 4G7 H1.203_L1.155
B25: H1.203 / L1.161 (antibody, V domains shown)
VH: B1 VH with D56S, K59E, S105T
VL: B1 VL with L30Q, S32V, G34S, Q57S, A60N, F101I
notes: vs H1L1 (Kabat): VH D55S/K58E/S100cT; VL L27cQ/S27eV/G29S/A55N/F96I; also called 4G7 H1.203_L1.161
B26: H1.201 / L1.161 (antibody, V domains shown)
VH: B1 VH with D56S, S105T
VL: B1 VL with L30Q, S32V, G34S, Q57S, A60N, F101I
notes: vs H1L1 (Kabat): VH D55S/S100cT; VL L27cQ/S27eV/G29S/A55N/F96I; also called 4G7 H1.201_L1.161
B27: H1.201 / L1.160 (antibody, V domains shown)
VH: B1 VH with D56S, S105T
VL: B1 VL with L30Q, S32V, G34A, Q57S, A60N, F101I
notes: vs H1L1 (Kabat): VH D55S/S100cT; VL L27cQ/S27eV/G29A/A55N/F96I; also called 4G7 H1.201_L1.160
B28: H1.202 / L1.160 (antibody, V domains shown)
VH: B1 VH with D56E, S105T
VL: B1 VL with L30Q, S32V, G34A, Q57S, A60N, F101I
notes: vs H1L1 (Kabat): VH D55E/S100cT; VL L27cQ/S27eV/G29A/A55N/F96I; also called 4G7 H1.202_L1.160
B29: H1.202 / L1.161 (antibody, V domains shown)
VH: B1 VH with D56E, S105T
VL: B1 VL with L30Q, S32V, G34S, Q57S, A60N, F101I
notes: vs H1L1 (Kabat): VH D55E/S100cT; VL L27cQ/S27eV/G29S/A55N/F96I; also called 4G7 H1.202_L1.161
B30: H1.204 / L1.160 (antibody, V domains shown)
VH: B1 VH with D56E, K59E, S105T
VL: B1 VL with L30Q, S32V, G34A, Q57S, A60N, F101I
notes: vs H1L1 (Kabat): VH D55E/K58E/S100cT; VL L27cQ/S27eV/G29A/A55N/F96I; also called 4G7 H1.204_L1.160
B31: H1.203 / L1.160 (antibody, V domains shown)
VH: B1 VH with D56S, K59E, S105T
VL: B1 VL with L30Q, S32V, G34A, Q57S, A60N, F101I
notes: vs H1L1 (Kabat): VH D55S/K58E/S100cT; VL L27cQ/S27eV/G29A/A55N/F96I; also called 4G7 H1.203_L1.160

Numbering of substitutions follows the chain as printed. In names and notes the source's numbering stands.

The first assay addresses T1, human CD19 (human, UniProt P15391 20-556).
T1 construct: also called B-cell surface antigen B4; B-cell antigen CD19
T1 sequence: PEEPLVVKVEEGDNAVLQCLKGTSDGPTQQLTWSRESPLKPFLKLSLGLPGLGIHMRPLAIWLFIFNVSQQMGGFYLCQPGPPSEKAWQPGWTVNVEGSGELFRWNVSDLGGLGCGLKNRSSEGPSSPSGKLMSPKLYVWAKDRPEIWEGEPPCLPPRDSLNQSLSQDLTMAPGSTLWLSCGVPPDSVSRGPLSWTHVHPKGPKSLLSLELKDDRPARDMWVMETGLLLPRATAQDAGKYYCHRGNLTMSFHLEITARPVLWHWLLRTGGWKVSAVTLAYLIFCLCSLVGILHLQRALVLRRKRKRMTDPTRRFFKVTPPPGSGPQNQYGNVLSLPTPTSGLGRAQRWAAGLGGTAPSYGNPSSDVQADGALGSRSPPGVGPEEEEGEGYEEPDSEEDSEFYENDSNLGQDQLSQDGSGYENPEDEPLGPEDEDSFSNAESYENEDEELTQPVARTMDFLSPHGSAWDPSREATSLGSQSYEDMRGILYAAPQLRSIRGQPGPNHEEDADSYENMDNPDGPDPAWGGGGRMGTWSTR
In words: binding affinity relative to the parent H1L1 mAb (Example 5); assay and format not named on the sheet.
With B1, the Fold change binding came to 1.85 fold.

Turning to B2, the Fold change binding came to 2.12 fold.

For the molecule B3, the Fold change binding stood at 2.18 fold.

As to B4, the Fold change binding was 5.57 fold.

For B5, the Fold change binding amounted to 3.87 fold.

Turning to B6, the Fold change binding was 1.58 fold.

Take B7: the Fold change binding amounted to 1.58 fold.

For the molecule B8, the Fold change binding was determined as 1.75 fold.

B9: the Fold change binding worked out at 3.97 fold.

In the case of B10, the Fold change binding amounted to 1.8 fold.

For the molecule B11, the Fold change binding stood at 3.35 fold.

Take B12: the Fold change binding worked out at 3.74 fold.

In the case of B13, the Fold change binding came to 1.84 fold.

As for B14, the Fold change binding was found to be 1.73 fold.

B15: the Fold change binding came out at 1.54 fold.

As for B16, the Fold change binding stood at 1.73 fold.

Regarding B17, the Fold change binding worked out at 3.18 fold.

Take B18: the Fold change binding was 5.32 fold.

Regarding B19, the Fold change binding turned out to be 1.5 fold.

Take B20: the Fold change binding is 2.61 fold.

In the case of B21, the Fold change binding was 4.41 fold.

For the molecule B22, the Fold change binding was 1.57 fold.

For B23, the Fold change binding was 1.62 fold.

The next assay deals with T1, human CD19. The assay is described as above. This is another data set of the same source.
For B24, the Fold change binding stood at 4.73 fold.

On to B25, for which the Fold change binding was 2.92 fold.

In the case of B26, the Fold change binding stood at 3.89 fold.

Take B27: the Fold change binding was determined as 4.51 fold.

Regarding B28, the Fold change binding was determined as 3.96 fold.

For the molecule B29, the Fold change binding turned out to be 4.3 fold.

For B30, the Fold change binding came out at 3.46 fold.

Regarding B31, the Fold change binding was 1.76 fold.
